From PMC12259851, “Rapid detection and capture of clinical Escherichia coli strains mediated by OmpA-targeting nanobodies” (Communications Biology, 2025) come the findings set out here.

Assay [1] concerns the target T1, OmpF on E. coli K-12 MC1061 cells (Escherichia coli K-12 MC1061, UniProt P02931).
T1 construct: outer membrane protein OmpF, E. coli K-12 MC1061; The homotrimeric state is cited from other work; also called E. coli K12 strain; source: endogenous, on E. coli MC1061 cells
In words: flow cytometry on cells; Nb18 on the E. coli K12 strain (Supplementary Fig. 11c); conditions not told for this experiment. To be noted: one partner purified. For orientation: A flow cytometer gives signals particle by particle.

In assay [2] the target is T2, OmpA-short on clinical E. coli strain CS#1 (Escherichia coli clinical isolate CS#1 …, UniProt P0A910, strain).
T2 construct: OmpA, short isoform, of clinical isolate CS#1; Loose, partially permeable O-antigen layer; also called clinical strain #1; source: endogenous, on cells of clinical E. coli isolate CS#1
As to the kind of experiment: flow cytometry on cells; concentration series of Nb01-AF647; cells fixed after staining (2% PFA), CytoFlex S, triplicates; Hill equation; apparent affinity (EC50); cells grown in LB. As to conditions: one partner purified.

For assay [3], the target named is T3, OmpA-short on E. coli K-12 MC1061 cells (Escherichia coli K-12 MC1061, UniProt P0A910).
T3 construct: Strain devoid of O-antigen; source: endogenous, on E. coli MC1061 cells
The description is as above. To be noted: one partner purified.

Assay [4] addresses T4, OmpA-short on clinical E. coli strain CS#2 (Escherichia coli clinical isolate CS#2 …, UniProt P0A910, strain).
T4 construct: OmpA, short isoform, of clinical isolate CS#2; Dense O-antigen layer; source: endogenous, on cells of clinical E. coli isolate CS#2
The description is as above. To be noted: one partner purified.

For assay [5], the target named is T5, OmpA-short on E. coli K1 strain ATCC 11775 (Escherichia coli K1 ATCC 11775, strain).
T5 construct: OmpA, short isoform, of E. coli K1 ATCC 11775; loop regions identical to those of MC1061 OmpA-short; Strain with a K1 polysaccharide capsule; also called E. coli K1 OmpA-short; source: endogenous, on cells of E. coli K1 ATCC 11775
T5 chain: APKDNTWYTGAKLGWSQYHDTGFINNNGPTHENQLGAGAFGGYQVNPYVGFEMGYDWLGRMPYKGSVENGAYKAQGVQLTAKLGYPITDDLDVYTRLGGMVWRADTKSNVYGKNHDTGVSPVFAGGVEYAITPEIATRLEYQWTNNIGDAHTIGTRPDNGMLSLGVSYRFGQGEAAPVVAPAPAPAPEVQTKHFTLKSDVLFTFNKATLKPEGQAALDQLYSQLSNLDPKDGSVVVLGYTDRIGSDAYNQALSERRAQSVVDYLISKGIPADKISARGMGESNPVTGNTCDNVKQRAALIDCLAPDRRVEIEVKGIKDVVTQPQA
The assay is described as above. To be noted: one partner purified.

Assay [6] addresses T4, OmpA-short on clinical E. coli strain …. As to the kind of experiment: flow cytometry on cells; as a8, CS#2, with the anticoagulant heparin. To be noted: one partner purified.
The target is the same in assay [7]. In words: flow cytometry on cells; as a8, CS#2, with the anticoagulant citrate phosphate dextrose (CPD). To be noted: one partner purified.
The target is the same in assay [8]. In words: flow cytometry on cells; as a8, CS#2, with EDTA during staining. As to conditions: one partner purified.
The target of assay [9] is T6, Transmembrane domain of OmpA-short (Escherichia coli K-12 MC1061, UniProt P0A910).
T6 construct: OmpA, short isoform, E. coli K-12 MC1061, transmembrane (β-barrel) domain; also called β-barrel domain of OmpA-short
As to the kind of experiment: crystal structure; β-barrel domain of OmpA mixed 1:1.1 with the nanobody, sitting drop vapor diffusion at 20 °C; interface analysed with PDBePISA. As to conditions: both partners purified.

T1 sequence (P02931 23-362): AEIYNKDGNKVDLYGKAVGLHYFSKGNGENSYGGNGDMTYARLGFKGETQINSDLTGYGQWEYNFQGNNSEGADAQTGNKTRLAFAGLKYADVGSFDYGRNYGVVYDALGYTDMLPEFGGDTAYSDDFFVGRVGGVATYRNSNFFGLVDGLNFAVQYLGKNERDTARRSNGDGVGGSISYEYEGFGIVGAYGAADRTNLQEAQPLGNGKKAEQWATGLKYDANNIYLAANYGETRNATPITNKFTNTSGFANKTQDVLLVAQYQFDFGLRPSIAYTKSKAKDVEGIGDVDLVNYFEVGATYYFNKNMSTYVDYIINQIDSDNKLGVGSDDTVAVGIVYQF

B1: Nb18 (for flow cytometry) (VHH)
VHH: QRQLVESGGGLVQAGGSLTLSCSATGTVPRIDAMGWYRRSTGKKREQVASVGRGGRTNYSDSAKGRFTISRNGNTVTLQMTSLKPEDTDVYFCNALKYGRNADYDDYWGRGTRVTVSA
notes: nanobody Nb18 (alpaca VHH against OmpF); the flow cytometry methods speak of Alexa Fluor 647-labeled nanobodies (cysteine at the C-terminus, pSBinit with myc- and His-tag); also called OmpF nanobody
Consider B1, for which the EC50 in [1] came to 3 nM.

B2: Nb01-AF647 (VHH)
VHH: QVQLVESGGGLVQPGGSLRLSCVVSGTGFTFSKSPMSWARQAPGKEREWVSAIFADSSTYYSDSVRGRFTISRDNAKNTVYLQMNNVKPEDTAVYYCGHRRLGKTTYDYRGKGTRVTVSA
notes: nanobody Nb01 (alpaca VHH against OmpA-short); also called AlexaFluor647-labeled Nb01; source: E. coli MC1061 ΔompA (pSBinit), periplasmic extraction, purified (Ni-NTA, SEC), labelled with maleimide-AF647
Take B2: the concentration giving a half-maximal response (EC50) in [2] is 25.9 nM; in [3], 12.9 nM; in assay [4] it was 61.1 nM; in [5], 84.9 nM; in assay [6], 4.7 nM; in assay [7], 7.4 nM. In assay [8], the EC50 came out at 4.98 nM.

B3: Nb01 (for X-ray crystallography) (VHH)
VHH: B2 VHH
notes: nanobody Nb01 (alpaca VHH against OmpA-short); source: E. coli MC1061 ΔompA (pBXNPHM3), purified (Ni-NTA, 3C cleavage, reverse Ni-NTA, SEC)
Regarding B3, the binding result in [9] is given as “binds”.

A word on the EC50: it is the midpoint of the concentration-response curve.
